Assay results as given in publication PMC2034474.

Test system: HIS-GST-cERCC1 (ERCC1 central domain) (Homo sapiens)
Experiment: EMSA

“b10 (bubble10, dsDNA with 10 unpaired bases)” showed a Kd of 2500 nM.
